From patent US20210324080A1 (JIANGSU HUAIYU PHARMACEUTICAL, published 2021)
Substitutions are numbered along the chain they refer to. Blank lines part the entries; values can stand above or below the binder they belong to.

Key:
[1] = biological target: T1, CTLA-4-hFc (immunogen A; hFc-labeled CTLA-4 extracellular domain protein) (human, UniProt P16410 36-161); experiment: ELISA, coated CTLA-4-hFc, competitor biotin-B7.2-hFc
T1 construct: range 36-161; Made in HEK293 cells, purified on protein A; also called CLTA-4-hFc; CTLA-4 protein; not shown: human IgG Fc fragment (hFc) of the pCpC vector
T1 sequence (looked up): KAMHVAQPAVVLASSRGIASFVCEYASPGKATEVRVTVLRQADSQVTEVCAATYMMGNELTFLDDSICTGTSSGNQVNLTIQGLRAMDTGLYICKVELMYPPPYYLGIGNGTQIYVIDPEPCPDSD
Description: (§1) CTLA-4 extracellular domain protein (CTLA-4-hFc) was diluted with PBS to a final concentration of 1.0 μg/mL, and then added to a 96-well ELISA plate as 100 μl per well. The plate was covered with a plastic film and incubated overnight at 4° C. The plate was washed twice with plate washing solution [PBS containing 0.01% (v/v) Tween 20] on the next day, and added with blocking solution [PBS containing 0.01% (v/v) Tween 20 and 1% (w/w) BSA] and blocked at room temperature for 2 hours. […] After 2 hours, the plate was washed 3 times with a plate washing solution [PBS containing 0.01% (v/v) Tween 20]. HRP (horseradish peroxidase) labeled avidin diluent (purchased from Sigma) was added 100 microliters per well, and after the plate was incubated for 2 hours at 37° C., it was washed with plate washing solution [PBS containing 0.01% (v/v) Tween 20] for 3 times. […] TMB substrate was added to each well. After incubated at room temperature for 30 minutes, the plate was added with […] stop solution (1.0N HCl) to each well. An ELISA plate reader (SpectraMax 384plus, Molecular Device) was used to read the A450 nm value.

[2] = biological target: T1, CTLA-4-hFc (immunogen A; hFc-labeled …); experiment: ELISA, coated CTLA-4-hFc, competitor biotin-B7.1-hFc
Description: as §1

[3] = biological target: T1, CTLA-4-hFc (immunogen A; hFc-labeled …); experiment: competition ELISA: CTLA-4-hFc coated, antibody titrated, blocked ligand biotin-labeled B7.1-hFc, HRP-avidin, A450, inhibition (%)
Description: as §1

[4] = biological target: T2, CTLA-4 on human T lymphocytes (PBMC, CD3+ T cells) (human, UniProt P16410 36-223); experiment: cell-based or functional assay
T2 sequence (looked up): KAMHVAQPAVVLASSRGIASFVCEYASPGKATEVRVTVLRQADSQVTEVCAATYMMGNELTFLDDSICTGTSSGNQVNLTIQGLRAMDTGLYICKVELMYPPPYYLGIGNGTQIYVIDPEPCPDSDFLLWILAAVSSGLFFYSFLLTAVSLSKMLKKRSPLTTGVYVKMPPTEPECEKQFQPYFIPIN

[5] = biological target: T1, CTLA-4-hFc (immunogen A; hFc-labeled …); experiment: competition ELISA: CTLA-4-hFc coated, antibody titrated, blocked ligand biotin-labeled B7.2-hFc, HRP-avidin, A450, inhibition (%)
Description: as §1

[6] = biological target: T3, monkey CTLA-4, full length, on transfected HEK293 cells (monkey); experiment: FACS, 293F-cCTLA-4 cells
T3 construct: whole, on cells; also called cCTLA-4; HEK293-cCTLA-4
Description: The pIRES plasmid with the monkey-derived CTLA-4 full-length gene was transfected into the HEK293 cell line to construct a HEK293 stable cell line containing monkey CTLA-4 (herein referred to as HEK293-cCTLA-4 stable cell line), wherein the database accession number of the monkey CTLA-4 nucleotide sequence is XM_005574014.1. The HEK293-hCTLA-4 stable cell line and HEK293-cCTLA-4 stable cell line were expanded in a T-75 cell culture flask to a 90% confluence. The medium was aspirated, and the cells were washed with HBSS buffer (Hanks Balanced Salt Solution, purchased from Invitrogen) twice, then treated with an enzyme-free cell dissociation fluid (Versene solution, purchased from Life technology) and the cells were collected. The cells were washed with HBSS buffer twice. After counted, the cells were diluted with HBSS buffer to 2×10⁶ cells per ml, added with 1% goat serum blocking solution, wherein the percentage was the mass percantage. Cells were incubated on ice for 30 minutes, then washed twice with HBSS buffer by centrifugation. The collected cells were suspended in the FACS buffer (HBSS containing 1% BSA, wherein the percentage was the mass percantage) to 2×10⁶ cells/ml, added as 100 microliters per well to a 96-well FACS reaction plate, added with 100 microliters per well of the purified CTLA-4 antibody sample to be tested, incubated on ice for 2 hours. The plate was washed twice with the FACS buffer by centrifugation, added with 100 microliters of fluorescent (Alexa 488)-labeled secondary antibodies (purchased from Invitrogen) per well, and incubated on ice for 1 hour. The plate was washed 3 times with FACS buffer by centrifugation, added with 100 μl fixative solution [4% (v/v) Paraformaldehyde] per well to suspend the cells. 10 minutes later, it was washed 2 times with FACS buffer by centrifugation. The cells were suspended with 100 microliters of FACS buffer, FACS (FACS Calibur, purchased from BD) was used for detection and the results were analyzed.

[7] = biological target: T4, human CTLA-4 (Y201V), full length, on transfected cells (human, UniProt P16410 36-223); experiment: FACS, CHOK1-hCTLA-4 cells
T4 construct: whole, on cells; also called hCTLA-4; HEK293-hCTLA-4 (Y201V)
T4 sequence (looked up): T2 sequence (looked up) with Y166V

Inhibition rate (%) at 0.00091 nM [1]: 0% | Inhibition rate (%) at 0.091 nM [1]: 23% | Inhibition rate (%) at 0.274 nM [1]: 60% | Inhibition rate (%) at 0.823 nM [1]: 90% | Inhibition rate (%) at 2.5 nM [1]: 92% | Inhibition rate (%) at 7.4 nM [1]: 95% | Inhibition rate (%) at 22.2 nM [1]: 94% | Inhibition rate (%) at 66.7 nM [1]: 95% | Inhibition rate (%) at 0.00091 nM [2]: 0% | Inhibition rate (%) at 0.091 nM [2]: 8% | Inhibition rate (%) at 0.274 nM [2]: 55% | Inhibition rate (%) at 0.823 nM [2]: 93% | Inhibition rate (%) at 2.5 nM [2]: 94% | Inhibition rate (%) at 7.4 nM [2]: 97% | Inhibition rate (%) at 22.2 nM [2]: 96% | Inhibition rate (%) at 66.7 nM [2]: 97% | IC50 (read off the curve) [3]: ~0.2 nM | IL-2 (pg/mL) at 0.016 ug/mL, SEB PBMC test [4]: 355 pg/mL | IL-2 (pg/mL) at 0.08 ug/mL, SEB PBMC test [4]: 830 pg/mL | IL-2 (pg/mL) at 2 ug/mL, SEB PBMC test [4]: 3740 pg/mL | IL-2 (pg/mL) at 4 ug/mL (so in the source), SEB PBMC test [4]: 1420 pg/mL | IL-2 (pg/mL) at 10 ug/mL, SEB PBMC test [4]: 6120 pg/mL | IC50 (read off the curve) [5]: ~0.2 nM | MFI at 0.000128 nM [6]: 2.3 | MFI at 0.0128 nM [6]: 22.2 | MFI at 0.064 nM [6]: 67.7 | MFI at 0.32 nM [6]: 208 | MFI at 1.6 nM [6]: 465 | MFI at 8 nM [6]: 722 | MFI at 40 nM [6]: 800 | MFI at 200 nM [6]: 711 | MFI at 0.07 nM [7]: 29 | MFI at 0.67 nM [7]: 154 | MFI at 6.67 nM [7]: 420 | MFI at 66.67 nM [7]: 603
B1: 92C8B6 (chimeric antibody purified from hybridoma supernatant) (antibody, V domains shown)
VH: QVQLVESGGGVVQPGRSLRLSCAASGFTFSNFGMHWVRQAPGKGLEWVAVIWYDGSNKYYADSVKGRFTISRDNSKNTLFLQMNGLRAEDTAVYYCAKGGILMAGTLDYWGQGTLVTVSS
VL: DIQMTQSPSSLSASVGDRVTITCRASQSVSTYLNWYQQKPGKAPKLLIYAASSFQSGVPSRFSGSGSGTDFTLTISSLQPEDFATYFCQQSYSTPFTFGPGTKVDIK
notes: also called mAb42; mAb042

Inhibition rate (%) at 0.00091 nM [1]: 0% | Inhibition rate (%) at 0.091 nM [1]: -21% | Inhibition rate (%) at 0.274 nM [1]: 6% | Inhibition rate (%) at 0.823 nM [1]: 76% | Inhibition rate (%) at 2.5 nM [1]: 91% | Inhibition rate (%) at 7.4 nM [1]: 95% | Inhibition rate (%) at 22.2 nM [1]: 94% | Inhibition rate (%) at 66.7 nM [1]: 95% | Inhibition rate (%) at 0.00091 nM [2]: 0% | Inhibition rate (%) at 0.091 nM [2]: -1% | Inhibition rate (%) at 0.274 nM [2]: 4% | Inhibition rate (%) at 0.823 nM [2]: 78% | Inhibition rate (%) at 2.5 nM [2]: 93% | Inhibition rate (%) at 7.4 nM [2]: 91% | Inhibition rate (%) at 22.2 nM [2]: 91% | Inhibition rate (%) at 66.7 nM [2]: 97% | IC50 (read off the curve) [3]: ~0.5 nM | IL-2 (pg/mL) at 0.016 ug/mL, SEB PBMC test [4]: 336 pg/mL | IL-2 (pg/mL) at 0.08 ug/mL, SEB PBMC test [4]: 742 pg/mL | IL-2 (pg/mL) at 2 ug/mL, SEB PBMC test [4]: 4950 pg/mL | IL-2 (pg/mL) at 4 ug/mL (so in the source), SEB PBMC test [4]: 1520 pg/mL | IL-2 (pg/mL) at 10 ug/mL, SEB PBMC test [4]: 7980 pg/mL | IC50 (read off the curve) [5]: ~0.5 nM | MFI at 0.000128 nM [6]: 2.4 | MFI at 0.0128 nM [6]: 23.1 | MFI at 0.064 nM [6]: 67.2 | MFI at 0.32 nM [6]: 225 | MFI at 1.6 nM [6]: 513 | MFI at 8 nM [6]: 754 | MFI at 40 nM [6]: 910 | MFI at 200 nM [6]: 831 | MFI at 0.07 nM [7]: 20 | MFI at 0.67 nM [7]: 116 | MFI at 6.67 nM [7]: 395 | MFI at 66.67 nM [7]: 617
B2: 97A8D1 (chimeric antibody purified from hybridoma supernatant) (antibody, V domains shown)
VH: QVQLVESGGGVVQPGRSLRLSCVASGFTFNNYGMNWVRQAPGKGLEWVAVIWYGGRNKFYADSVKGRFTISRDNSKNTLYLEMNSLRAEDTAVYYCARADWGGWFDPWGQGTLVTVSS
VL: EIVLTQSPGTLSLSPGERATLSCRASQSVSSTYLAWYQQKPGQAPRLLIHGAFSRATGIPDRFSGSGSGPDFTLTISRLEPEDFAVYYCQQYGTSPFTFGPGTKVDIK
notes: also called mAb49; mAb049

Inhibition rate (%) at 0.00091 nM [1]: 0% | Inhibition rate (%) at 0.091 nM [1]: -29% | Inhibition rate (%) at 0.274 nM [1]: 2% | Inhibition rate (%) at 0.823 nM [1]: 62% | Inhibition rate (%) at 2.5 nM [1]: 78% | Inhibition rate (%) at 7.4 nM [1]: 89% | Inhibition rate (%) at 22.2 nM [1]: 91% | Inhibition rate (%) at 66.7 nM [1]: 93% | Inhibition rate (%) at 0.00091 nM [2]: 0% | Inhibition rate (%) at 0.091 nM [2]: -2% | Inhibition rate (%) at 0.274 nM [2]: 4% | Inhibition rate (%) at 0.823 nM [2]: 75% | Inhibition rate (%) at 2.5 nM [2]: 87% | Inhibition rate (%) at 7.4 nM [2]: 89% | Inhibition rate (%) at 22.2 nM [2]: 89% | Inhibition rate (%) at 66.7 nM [2]: 96% | IC50 (read off the curve) [3]: ~0.5 nM | IL-2 (pg/mL) at 0.016 ug/mL, SEB PBMC test [4]: 446 pg/mL | IL-2 (pg/mL) at 0.08 ug/mL, SEB PBMC test [4]: 824 pg/mL | IL-2 (pg/mL) at 2 ug/mL, SEB PBMC test [4]: 4450 pg/mL | IL-2 (pg/mL) at 4 ug/mL (so in the source), SEB PBMC test [4]: 1950 pg/mL | IL-2 (pg/mL) at 10 ug/mL, SEB PBMC test [4]: 7910 pg/mL | IC50 (read off the curve) [5]: ~0.6 nM | MFI at 0.000128 nM [6]: 2.3 | MFI at 0.0128 nM [6]: 35.7 | MFI at 0.064 nM [6]: 96.8 | MFI at 0.32 nM [6]: 270 | MFI at 1.6 nM [6]: 504 | MFI at 8 nM [6]: 757 | MFI at 40 nM [6]: 810 | MFI at 200 nM [6]: 784 | MFI at 0.07 nM [7]: 22 | MFI at 0.67 nM [7]: 125 | MFI at 6.67 nM [7]: 347 | MFI at 66.67 nM [7]: 606
B3: 97B8E1 (chimeric antibody purified from hybridoma supernatant) (antibody, V domains shown)
VH: QVQLVESGGGVVQPGRSLRLSCAASGFTFSSYVMHWVRQAPGKGLEWVAVIWSDGRNKYYTDSVKGRFTISRDNSKNTLYLQMSSLRAEDTAVYYCARSGIALAGNAFDIWGQGTMVTVSS
VL: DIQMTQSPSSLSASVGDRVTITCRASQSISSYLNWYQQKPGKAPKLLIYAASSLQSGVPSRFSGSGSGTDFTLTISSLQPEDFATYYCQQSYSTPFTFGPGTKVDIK
notes: also called mAb50; mAb050
